Our source for the EC50 values is patent US20260365734 (published 2026).

Test [1] addresses T1, mouse PD-L1 (cell surface) (mouse, UniProt Q9EP73). The test can be described thus: FACS, Hepa1-6 cells. In general terms: Flow cytometry measures light scatter and fluorescence of single cells or particles in a stream.
For test [2], the target named is T1, mouse PD-L1 (cell surface). The test can be described thus: FACS, 293T m-PD-L1 cells.
In test [3] the target is T2, human PD-L1 (cell surface) (human, UniProt Q9NZQ7). The test is described as follows: FACS.
Test [4] concerns the target T2, human PD-L1 (cell surface). The test can be described thus: FACS, NCI-H441 cells.
Test [5] has as its target T2, human PD-L1 (cell surface). The test is described as follows: FACS, CHO-h-PD-L1 cells.
In test [6] the target is T2, human PD-L1 (cell surface). The test is described as follows: FACS. The source holds these as a separate data set.

T2 sequence (Q9NZQ7 19-238): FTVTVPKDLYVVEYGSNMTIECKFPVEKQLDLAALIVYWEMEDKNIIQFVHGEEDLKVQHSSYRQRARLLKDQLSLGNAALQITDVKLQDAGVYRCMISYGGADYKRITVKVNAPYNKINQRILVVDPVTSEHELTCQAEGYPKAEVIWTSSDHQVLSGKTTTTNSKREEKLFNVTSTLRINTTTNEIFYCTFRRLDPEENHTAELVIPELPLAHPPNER
T1 sequence (Q9EP73 19-238): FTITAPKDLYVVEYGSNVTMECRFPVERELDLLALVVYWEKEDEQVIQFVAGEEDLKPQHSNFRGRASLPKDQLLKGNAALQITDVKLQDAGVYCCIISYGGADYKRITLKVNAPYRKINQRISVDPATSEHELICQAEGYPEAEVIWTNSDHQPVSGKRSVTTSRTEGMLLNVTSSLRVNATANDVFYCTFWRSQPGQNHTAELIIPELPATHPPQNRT

B1: 3H1-hv7 (antibody, V domains shown)
VH: QVQLVESGGGVVQPGGSLRLSCAASGIDFSDTHMHWVRQAPGKQRELVAIITSGGSTDYVDSVKGRFTISRDNSKNTLYLQMNSLRAEDTAVYYCNARRSTIYWGQGTQVTVSS
The EC50 is the concentration needed to bring the measured effect to its halfway point. Consider B1, for which the values for the EC50 in test [1] and in test [2] were 6.78 nM and 0.56 nM, respectively.

B2: 5F8-8D4 (antibody, V domains shown)
VH: EVQLVESGGGLVQPGGSLRLSCAASGFDFSDTFMSWVRQAPGKERELVAIITSGGSTDYVDSVKGRFTISRDNSKNTLYLQMNSLRAEDTAVYYCNARRTTIYWGQGTQVTVSS
In test [3], B2 came in with an EC50 of 0.49 nM.

B3: 3H1-2A2 (antibody, V domains shown)
VH: QVQLVESGGGVVQPGGSLRLSCAASGIDFSDTHMHWVRQAPGKQRELVAIITSGGFTDYVDSVKGRFTISRDNSKNTLYLQMNSLRAEDTAVYYCNARRSTIYWGQGTQVTVSS
For B3, the results for the EC50 in test [1] and in test [2] were 0.31 nM and 1.42 nM, respectively.

B4: 5F8-8E3 (antibody, V domains shown)
VH: EVQLVESGGGLVQPGGSLRLSCAASGFDFSDTHMSWVRQAPGKERELVAIITSGGSTDYVDSVKGRFTISRDNSKNTLYLQMNSLRAEDTAVYYCNARLTTIYWGQGTQVTVSS
B4 yielded an EC50 in test [3] of 0.57 nM. In other words, the sub-nanomolar range.

B5: 5F8-7D5 (antibody, V domains shown)
VH: EVQLVESGGGLVQPGGSLRLSCAASGFDFEDTHMSWVRQAPGKERELVAIITSGCSTDYVDSVKGRFTISRDNSKNTLYLQMNSLRAEDTAVYYCNARRATIYWGQGTQVTVSS
In turn, B5 returned a concentration for a half-maximal effect (EC50) in test [3] of 0.51 nM.

B6: 3H1-3B9 (antibody, V domains shown)
VH: QVQLVESGGGVVQPGGSLRLSCAASGIDFSDTHMHWVRQAPGKQRELVAIITSGGFTDYVDSVKGRFTISRDNSKNTLYLQMNSLRAEDTAVYYCNARTSTIYWGQGTQVTVSS
Take B6: the results for the EC50 in test [1] and in test [2] were 0.3 nM and 0.97 nM, respectively.

B7: 3H1-1G9 (antibody, V domains shown)
VH: QVQLVESGGGVVQPGGSLRLSCAASGIDFDDTHMHWVRQAPGKQRELVAIITSGGLTDYVDSVKGRFTISRDNSKNTLYLQMNSLRAEDTAVYYCNARTSTIYWGQGTQVTVSS
On to B7, for which the figures for the EC50 in test [1] and in test [2] were 0.55 nM and 1.01 nM, respectively.

B8: 3H1-2F4 (antibody, V domains shown)
VH: QVQLVESGGGVVQPGGSLRLSCAASGIDFSDLHMHWVRQAPGKQRELVAIITSGGSTDYVDSVKGRFTISRDNSKNTLYLQMNSLRAEDTAVYYCNARSSTIYWGQGTQVTVSS
For B8, the EC50 is 0.65 nM in test [1] and 1 nM in test [2].

B9: 5F8-4B12 (antibody, V domains shown)
VH: EVQLVESGGGLVQPGGSLRLSCAASGFDFPDTHMSWVRQAPGKERELVAIITSGGFTDYVDSVKGRFTISRDNSKNTLYLQMNSLRAEDTAVYYCRARRTTIYWGQGTQVTVSS
On to B9, for which it took 0.63 nM to reach a half-maximal effect in test [3] (EC50).

B10: 5F8-8H3 (antibody, V domains shown)
VH: EVQLVESGGGLVQPGGSLRLSCAASGFDFSMTHMSWVRQAPGKERELVAIITSGGKTDYVDSVKGRFTISRDNSKNTLYLQMNSLRAEDTAVYYCNARRATIYWGQGTQVTVSS
In the case of B10, in test [3], the response was half-maximal at 0.51 nM (EC50).

B11: 5F8-3A3 (antibody, V domains shown)
VH: EVQLVESGGGLVQPGGSLRLSCAASGFDFSDTHMSWVRQAPGKERELVAIITGGGSTDYVDSVKGRFTISRDNSKNTLYLQMNSLRAEDTAVYYCLARRTTIYWGQGTQVTVSS
Turning to B11, the midpoint of the response in test [3], the EC50, lay at 0.73 nM.

B12: 5F8-6D6 (antibody, V domains shown)
VH: EVQLVESGGGLVQPGGSLRLSCAASGFDFSDTAMSWVRQAPGKERELVAIITSGGSVDYVDSVKGRFTISRDNSKNTLYLQMNSLRAEDTAVYYCRARRTTIYWGQGTQVTVSS
Consider B12, for which a half-maximal effect in test [3] (EC50) was put at 0.52 nM.

B13: 3H1-6D2 (antibody, V domains shown)
VH: QVQLVESGGGVVQPGGSLRLSCAASGIDFNDTHMHWVRQAPGKQRELVAIITSRGSTDYVDSVKGRFTISRDNSKNTLYLQMNSLRAEDTAVYYCNARRSTLYWGQGTQVTVSS
As for B13, the EC50 in test [1] turned out to be 0.51 nM; in test [2], 1.29 nM.

B14: 3H1-2G3 (antibody, V domains shown)
VH: QVQLVESGGGVVQPGGSLRLSCAASGIDFSDTHMHWVRQAPGKQRELVAIITSSGSTDYVDSVKGRFTISRDNSKNTLYLQMNSLRAEDTAVYYCNARRSTILWGQGTQVTVSS
Consider B14, for which the EC50 in test [1] turned out to be 0.31 nM; in test [2], 1.57 nM.

B15: 4E2-Alpaca-NT (antibody, V domains shown)
VH: EVQLVESGGGSVQDGGSLTLSCAASGFSAGDVVMAWYRQAPGKQREFVANIAASSTTRYTDSVKGRFTISRDNAKNTVYLQMNSLKSEDTAVYYCNALVWTGSSYNNWGQGTQVTVSS
With B15, the EC50 in test [4] was 0.041 nM; in test [5] it was 0.109 nM.

B16: 4D2-Alpaca-NT (antibody, V domains shown)
VH: QVQLVESGGGLVQAGGSLRLSCAASGFSASDVVMAWYRQAPGKQREFVANLGASSTTRYADSVKGRFTISRDDAKNTVSLQMNSLKSEDTAVYYCNALVWTGSSYNNWGQGTQVTVSS
In the case of B16, the EC50 in test [4] turned out to be 0.044 nM; in test [5], 0.103 nM.

B17: 4D2-hv2-NT (antibody, V domains shown)
VH: QVQLVESGGGLVKPGGSLRLSCAASGFSASDVVMAWYRQAPGKQREFVSNLGASSTTRYADSVKGRFTISRDNAKNSLYLQMNSLRAEDTAVYYCNALVWTGSSYNNWGQGTQVTVSS
Regarding B17, the EC50 in test [4] came out at 0.099 nM; in test [5] it was 0.203 nM.

B18: 4D2-hv4-NT (antibody, V domains shown)
VH: QVQLVESGGGLVKPGGSLRLSCAASGFSASDVVMAWYRQAPGKQREFVSNLGASSTTNYADSVKGRFTISRDNAKNSLYLQMNSLRAEDTAVYYCNALVWTGSSYNNWGQGTQVTVSS
Regarding B18, the EC50 stood at 0.112 nM in test [4] and 0.171 nM in test [5].

B19: 4D2-hv3-NT (antibody, V domains shown)
VH: QVQLVESGGGLVKPGGSLRLSCAASGFSASDVVMAWYRQAPGKQREFVSNLGASSTTYYADSVKGRFTISRDNAKNSLYLQMNSLRAEDTAVYYCNALVWTGSSYNNWGQGTQVTVSS
Regarding B19, the EC50 in test [4] stood at 0.271 nM; in test [5] it was 0.598 nM.

B20: 4E2-hv3-NT (antibody, V domains shown)
VH: EVQLVESGGGLVKPGGSLRLSCAASGFSAGDVVMAWYRQAPGKQREFVSNIAASSTTYYADSVKGRFTISRDNAKNSLYLQMNSLRAEDTAVYYCNALVWTGSSYNNWGQGTQVTVSS
Turning to B20, the results for the EC50 in test [4] and in test [5] were 0.055 nM and 0.167 nM, respectively.

B21: R3-2A11 (antibody, V domains shown)
VH: QVQLVESGGDLVQPGGSLRLSCAASGIDFSDTHMGWYRQAPGKQRELVALITSGGFTDYPDSVKGRFTISRDNAKNTMYLQMNTLKLEDTAVYYCNARRTTIYWGQGTQVTVSS
In test [6], B21 came in with an EC50 of 1.16 nM.

B22: R2-1A3 (antibody, V domains shown)
VH: EVQLVESGGGLVQPGGSLRLSCVASGFDFSDTHMGWYRQAPGKQRELVALITSGAFTDYADSVKGRFTISRDNAKNTVYLQMNTLKFEDTAVYYCNARRTTIYWGQGTQVTVSS
B22 yielded an EC50 in test [6] of 0.88 nM.

B23: R2-1G4 (antibody, V domains shown)
VH: QVQLVESGGGLVQPGGSLRLSCAASGIDFSDTHMGWYRQAPGKERELVALITSGGFTDYADSVKGRFTISRDNAKNTMYLQMNTLKFEDTAVYYCNARRTTIYWGQGTQVTVSS
In the case of B23, in test [6], the EC50 came to 0.42 nM.

B24: R1-1C3 (antibody, V domains shown)
VH: EVQLVQSGGGLVQPGGSLRLSCAASGIFFSDTHMGWYRQAPGKERELVAIITSGGSTDYVDSVKGRFTISRDNAKNTVYLQMNTLKFEDTAVYYCNARRTTIYWGQGTQVTVSS
In turn, B24 came in with an EC50 in test [6] of 1.69 nM.

B25: R2-6D2 (antibody, V domains shown)
VH: QVQLVESGGGLVQPGGSLRLSCAASGIDFSDTHMGWYRQAPGKERELVALITSGGFTDYADSVKGRFTISRDNAKNTMYLQMNTLKFEDTAVYYCNARKTTIYWGQGTQVTVSS
In test [6], B25 returned an EC50 of 0.93 nM.

B26: R2-3A5 (antibody, V domains shown)
VH: EVQLVESGGGLVQPGGSLRLSCAASGIDFSDTHMGWYRQAPGKQRELVALITSGGFTDYADSVKGRFTISRDNAKNTMYLQMNTLKLEDTAVYYCNARRTTIYWGQGTQVTVSS
B26: in test [6], the EC50 was 0.6 nM.

B27: R2-1G10 (antibody, V domains shown)
VH: QVQLVESGGGLVQPGGSLRLSCAASGIFFSDTHMGWYRQAPGKERELVAIITSGGSTDYVDSVKGRFTISRDNAKNTVYLQMNSLKFEDTAVYYCNARRTTIYWGQGTQVTVSS
Regarding B27, the EC50 in test [6] was 0.63 nM.

B28: R2-6A10 (antibody, V domains shown)
VH: QVQLVESGGGLVQPGGSLRLSCAASGIDFSDTHMGWYRQAPGKERELVALITSGGFTDYADSVKGRFTISRDNAKNTMYLQMNTLKFEDTAVYYCNARRSTIYWGQGTQVTVSS
Take B28: in test [6], it took 0.54 nM to reach a half-maximal effect (EC50).

B29: R2-4H8 (antibody, V domains shown)
VH: EVQLVESGGGLVQPGGSLRLSCGASGIFFSGVHMGWYRQAPGKERELVALITDSGSADYVDSVKGRFTISRDNAKNTVYLQMNSLKFEDTAVYYCNARTTTIYWGQGTQVTVSS
On to B29, for which the EC50 in test [6] was determined as 0.87 nM.
